Key:
Assay type in all cases: cell-based
[1] = tested on: methicillin-resistant Staphylococcus aureus (ATCC BAA-42)
[2] = tested on: vancomycin-resistant enterococci (ATCC 700802); assay: inhibition / killing of vancomycin-resistant enterococci; conditions: FIG. 7 A
[3] = tested on: multi-drug resistant Pseudomonas aeruginosa (clinical isolated strain 13578 in West China Hospital); assay: inhibition / killing of multi-drug resistant Pseudomonas aeruginosa; conditions: FIG. 7 C

B1: wild-type colicin Ia: wild-type colicin Ia, bacteriocin secreted by Escherichia coli that forms ion channels (protein, UniProt P06716 1-626, looked up)
Colicin-Ia: MSDPVRITNPGAESLGYDSDGHEIMAVDIYVNPPRVDVFHGTPPAWSSFGNKTIWGGNEWVDDSPTRSDIEKRDKEITAYKNTLSAQQKENENKRTEAGKRLSAAIAAREKDENTLKTLRAGNADAADITRQEFRLLQAELREYGFRTEIAGYDALRLHTESRMLFADADSLRISPREARSLIEQAEKRQKDAQNADKKAADMLAEYERRKGILDTRLSELEKNGGAALAVLDAQQARLLGQQTRNDRAISEARNKLSSVTESLNTARNALTRAEQQLTQQKNTPDGKTIVSPEKFPGRSSTNHSIVVSGDPRFAGTIKITTSAVIDNRANLNYLLSHSGLDYKRNILNDRNPVVTEDVEGDKKIYNAEVAEWDKLRQRLLDARNKITSAESAVNSARNNLSARTNEQKHANDALNALLKEKENIRNQLSGINQKIAEEKRKQDELKATKDAINFTTEFLKSVSEKYGAKAEQLAREMAGQAKGKKIRNVEEALKTYEKYRADINKKINAKDRAAIAAALESVKLSDISSNLNRFSRGLGYAGKFTSLADWITEFGKAVRTENWRPLFVKTETIIAGNAATALVALVFSILTGSALGIIGYGLLMAVTGALIDESLVEKANKFWGI
- minimum inhibitory concentration (MIC) [1]: 0.23 nmol
- minimum inhibitory concentration (MIC) [2]: 0.91 nmol
- minimum inhibitory concentration (MIC) [3]: 0.91 nmol

Reference: US10071358B2, “Antibiotic preparation method and platform system based on same” (priority 2011, dated 2018)
